Columns and labels:
human alpha-thrombin [1] = biological target: T1, human alpha-thrombin (Homo sapiens, UniProt P00734;P00734 328-363;364-622); assay: sandwich aptamer microarray (fluorescence); thrombin captured on immobilized TBA1, Cy3-streptavidin detection; LOD 0.17 nM (not Kd); 20 mM Tris, 140 mM NaCl, 5 mM KCl, 1 mM MgCl2, pH 7.5, 25 C; 30 min pre-incubation with TBA2, then 2 h on array; PBS wash
human alpha-thrombin [2] = biological target: T1, human alpha-thrombin; assay: sandwich aptamer microarray (fluorescence); thrombin captured on immobilized TBA1; LOD 0.75 nM (not Kd); 20 mM Tris, 140 mM NaCl, 5 mM KCl, 1 mM MgCl2, pH 7.5, 25 C; 30 min pre-incubation with TBA2, then 2 h on array; PBS wash

Row | Binder | binding result (human alpha-thrombin [1]) | binding result (human alpha-thrombin [2])
1 | AGTCCGTGGTAGGGCAGGTTGGGGTGACT (structured_DNA) [TBA2-biotin] | binds | –
2 | AGTCCGTGGTAGGGCAGGTTGGGGTGACT (structured_DNA) [TBA2-Cy5] | – | binds

Source: article PMC5003437, “Development and Optimization of a Thrombin Sandwich Aptamer Microarray”
